Measurements taken from US20200270358A1 (BEIJING GEFUCURE BIOTECHNOLOGY, published 2020).

Target: T1, CD20 antigen on the surface of Daudi and Raji B lymphoma cells (human, UniProt P11836 1-297)
T1 sequence (looked up): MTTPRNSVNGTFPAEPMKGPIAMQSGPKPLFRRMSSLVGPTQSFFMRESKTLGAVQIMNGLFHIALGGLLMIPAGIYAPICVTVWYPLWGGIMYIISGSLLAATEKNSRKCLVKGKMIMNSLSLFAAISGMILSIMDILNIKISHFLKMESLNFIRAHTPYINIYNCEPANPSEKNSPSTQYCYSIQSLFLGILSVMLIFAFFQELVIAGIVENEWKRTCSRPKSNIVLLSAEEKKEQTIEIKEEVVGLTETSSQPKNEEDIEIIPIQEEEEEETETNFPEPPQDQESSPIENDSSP
Assay: cell-based or functional assay

B1: recombinant afucosylated anti-human CD20 monoclonal antibody prepared in Example 2 (expressed in the milk of a transgenic cow) (antibody, human IgG1, kappa)
heavy: not shown
light: QIVLSQSPAILSASPGEKVTMTCRASSSVSYIHWFQQKPGSSPKPWIYATSNLASGVPVRFSGSGSGTSYSLTISRVEAEDAATYYCQQWTSNPPTFGGGTKLEIKRTVAAPSVFIFPPSDEQLKSGTASVVCLLNNFYPREAKVQWKVDNALQSGNSQESVTEQDSKDSTYSLSSTLTLSKADYEKHKVYACEVTHQGLSSPVTKSFNRGEC
modifications: N-linked sugar chain at Asn-320, mainly afucosylated glycoform (80% to 100%), of which the G2 glycoform is 30% to 100%
  EC50 (read off the curve): ADCC, percentage of cell lysis (LDH release), NK92/CD16a (158 V/V) effector cells, CD20-bearing B lymphoma target cells: ~0.5 ng/mL
